Reference: patent publication US7951385B2, “Probiotic strain and antimicrobial peptide derived therefrom” (Cipla Medpro Research and Development (Pty) Ltd., priority 2006, dated 2011)

What was measured:
[1] = tested on: Lactobacillus casei LHS; experiment: Effect of enzymes, temperature, pH and detergents on antimicrobial activity of peptide ST4SA; type: physicochemical; parameters: key: − = no activity; + = activity zones of at least 5 mm in diameter
Method: Antimicrobial activity was expressed as arbitrary units (AU) per ml cell-free supernatant. One AU is defined as the reciprocal of the highest dilution showing a clear zone of growth inhibition and is calculated as follows:
a^b×100, where “a” represents the dilution factor and “b” the last dilution that produces an inhibition zone of at least 2 mm in diameter. Activity is expressed per ml by multiplication with 100. Lactobacillus casei LHS was used as indicator strain.
The cells were harvested (8 000×g, 4° C., 15 min) and the cell-free supernatants adjusted to pH 6.0 with 6M NaOH. One ml of each supernatant was treated with catalase (Boehringer Mannheim) at 0.1 mg/ml (final concentration), Proteinase K (Roche, Indianapolis, Ind., USA), pronase, papain, pepsin and trypsin (Boehringer Mannheim GmbH, Germany), at 1 mg/ml and 0.1 mg/ml (final concentration), respectively. After incubation the enzymes were heat-inactivated (3 min at 100° C.) and tested for antimicrobial activity, as described before.
Aliquots of peptide ST4SA were exposed to heat treatments of 30° C., 60° C. and 100° C. for 10, 30 and 90 min, respectively, and 121° C. for 20 min (Table 3). The samples were then tested for antimicrobial activity, as described before.
In a separate experiment, samples of peptide ST4SA were adjusted to pH values ranging from 2-12, incubated at 37° C. for 30 min, neutralised to pH 7, and then tested for antimicrobial activity (Table 3).

[2] = tested on: pathogens tested; experiment: Adhesion of peptide ST4SA to pathogens (summary); type: binding; settings: conclusion for the pathogens tested (Table 7)
Description: Binding of peptide ST4SA to target cells is important to ensure penetration of the peptide. The ability of peptide ST4SA to adhere to pathogens was studied and the results were expressed as a percentage binding to the pathogens (Table 7). […] Adhesion of peptide ST4SA to the target cell leads to penetration and disruption of the cell membrane (FIG. 14).

[3] = tested on: tumour necrosis factor (TNF), interferon γ (IFN); experiment: Immune modulation (cytokine RNA hybridization, ileum and colon); type: in vivo, rat
Method: Total RNA was extracted from the frozen ileum and colon samples using Trizol reagent. The concentration of RNA was determined by measuring the absorbance at 260 nm using a Nanodrop spectrophotometer, after DNase treatment had been completed. Each RNA sample was diluted to a concentration of 42 ng/μl. A total of 5 μg of each sample was transferred in triplicate onto a nylon membrane using a slot blot apparatus. The membrane was then probed with either a tumour necrosis factor (TNF), interferon γ (IFN) or β-actin DNA probe amplified from rat genomic DNA and labeled with DIG. The membrane was exposed to X-ray film overnight and developed.

[4] = tested on: Staphylococcus aureus; experiment: Extracellular DNA after treatment of pathogens with peptide ST4SA; type: cell-based; settings: Staphylococcus aureus 36
Description: (§1) Further evidence of cell membrane damage and leakage of cellular constituents was obtained by testing for extracellular DNA and extracellular β-galactosidase activity.

[5] = tested on: Middle ear isolates (unknown); experiment: as above; type: cell-based
Description: as §1

[6] = tested on: Enterococcus spp. HKLHS; experiment: as above; type: cell-based; settings: Control organism Enterococcus spp. HKLHS
Description: as §1

[7] = tested on: Pseudomonas auringinosa; experiment: as above; type: cell-based; settings: Pseudomonas auringinosa E
Description: as §1

[8] = tested on: Streptococcus pneumoniae; experiment: as above; type: cell-based
Description: as §1

[9] = tested on: Klebsiella pneumoniae; experiment: as above; type: cell-based; settings: Klebsiella pneumoniae 30
Description: as §1

[10] = tested on: Streptococcus pyogenes; experiment: as above; type: cell-based; settings: Streptococcus pyogenes 20
Description: as §1

[11] = tested on: Lactobacillus sakei DSM 20017; experiment: Blocking of the Lipid II target site with vancomycin; type: cell-based; settings: L. sakei DSM 20017, FIG. 26
Description: To test this hypothesis, the Lipid II target site of Lactobacillus sakei DSM 20017 (sensitive to peptide ST 4SA) was blocked with vancomycin (see schematic presentation, FIG. 26). Vancomycin adheres to the amino acid side chain of the Lipid II molecule, which would, theoretically, prevent peptide ST4SA from binding to the same site (that is if Lipid II acts as receptor). […] The fact that peptide ST4SA binds to more than one anchoring site on the sensitive cell may explain why it has such a broad spectrum of antimicrobial activity (inhibitory to Gram-positive and Gram-negative bacteria).

[12] = tested on: pathogenic bacteria (Listeria, Bacillus and Staphylococcus); experiment: Challenge study with red meat as model, PE-bound peptide; settings: surface (PE)-bound peptide
Method: Peptide ST4SA adhered strongly, and it would seem irreversibly, to the PE film. Release of peptide ST4SA from the surface of PE was only possible after 1 h with a current of 30 mA. […] The encapsulation of the antimicrobial peptide in the polymer leads to a slow release of the antimicrobial peptide and an extended period of treatment of a microbial infection.

[13] = tested on: virulence factors; experiment: Virulence factors assayed (in vitro tests and/or PCR screening); parameters: species or system Enterococcus mundtii
Description: The presence of virulence factors, viz. vancomycin resistance (VanA/VanB/VanC1/VanC2/VanC3), production of gelatinase (Gel), aggregation substance (AS), adhesin of collagen from enterococci (Ace), enterococcus surface protein (Esp), haemolysin/bacteriocin (Cyl) and non-cytolysin beta hemolysin genes were studied by in vitro tests and/or PCR screening. DNA was extracted from E. mundtii ST4 according to standard methods. The primers designed for amplification of the latter genes were as described.

Peptide ST4SA: broad-spectrum antibacterial peptide (bacteriocin) produced by Enterococcus mundtii strain ST4SA, SEQ. ID. NO. 12 (MSQVVGGKYYGNGVSCNKKGCSVDWGKAIGIIGNNSAANLATGGAAGWKS; ENTEROCOCCUS MUNDTII ST4SA)
Antimicrobial activity after treatment ([1]; Detergents (1%): SDS): + (+ = activity zones of at least 5 mm in diameter)
Antimicrobial activity after treatment ([1]; Detergents (1%): Triton X-100): + (+ = activity zones of at least 5 mm in diameter)
Antimicrobial activity after treatment ([1]; Detergents (1%): Triton X-114): −
Antimicrobial activity after treatment ([1]; Detergents (1%): Tween 20, Tween 80): + (+ = activity zones of at least 5 mm in diameter)
Antimicrobial activity after treatment ([1]; Detergents (1%): urea): + (+ = activity zones of at least 5 mm in diameter)
Antimicrobial activity after treatment ([1]; EDTA: 0.1 mM, 1.0 mM, 2.0 mM): + (+ = activity zones of at least 5 mm in diameter)
Antimicrobial activity after treatment ([1]; Enzymes: Proteinase K): −
Antimicrobial activity after treatment ([1]; Enzymes: pepsin): −
Antimicrobial activity after treatment ([1]; Enzymes: pronase): −
Antimicrobial activity after treatment ([1]; Enzymes: α-amylase): + (+ = activity zones of at least 5 mm in diameter)
Antimicrobial activity after treatment ([1]; Heat: 30, 60, 100° C. for 10 min): + (+ = activity zones of at least 5 mm in diameter)
Antimicrobial activity after treatment ([1]; Heat: 30, 60, 100° C. for 30 min): + (+ = activity zones of at least 5 mm in diameter)
Antimicrobial activity after treatment ([1]; Heat: 30, 60, 100° C. for 90 min): + (+ = activity zones of at least 5 mm in diameter)
Antimicrobial activity after treatment ([1]; Heat: 121° C. for 20 min): −
Antimicrobial activity after treatment ([1]; pH 2.0-12.0, 37° C. for 30 min, neutralised to pH 7): + (+ = activity zones of at least 5 mm in diameter)
Antimicrobial activity after treatment ([1]; proteolytic enzyme papain): inactivated
Antimicrobial activity after treatment ([1]; proteolytic enzyme trypsin): inactivated
percentage binding to the pathogens [2]: at least 75%
Cytokine (TNF or IFN) expression [3]: did not indicate any cytokine (TNF or IFN) expression
DNA-leakage (O.D. readings at 260 nm) [4]: 0.892
DNA-leakage (O.D. readings at 260 nm) ([5]; Middle ear isolate 40): 0.801
DNA-leakage (O.D. readings at 260 nm) ([5]; Middle ear isolate BW): 1.186
DNA-leakage (O.D. readings at 260 nm) ([5]; Middle ear isolate DW): 1.153
DNA-leakage (O.D. readings at 260 nm) ([5]; Middle ear isolate F): 1.428
DNA-leakage (O.D. readings at 260 nm) ([5]; Middle ear isolate GW): 0.751
DNA-leakage (O.D. readings at 260 nm) ([5]; Middle ear isolate HW): 1.559
DNA-leakage (O.D. readings at 260 nm) ([5]; Middle ear isolate K): 0.455
DNA-leakage (O.D. readings at 260 nm) ([5]; Middle ear isolate L): 0.592
DNA-leakage (O.D. readings at 260 nm) ([5]; Middle ear isolate M): 0.326
DNA-leakage (O.D. readings at 260 nm) [6]: 1.395
DNA-leakage (O.D. readings at 260 nm) [7]: 0.187
DNA-leakage (O.D. readings at 260 nm) ([8]; Streptococcus pneumoniae 27): 1.670
DNA-leakage (O.D. readings at 260 nm) ([8]; Streptococcus pneumoniae 29): 1.182
DNA-leakage (O.D. readings at 260 nm) ([8]; Streptococcus pneumoniae D): 1.160
DNA-leakage (O.D. readings at 260 nm) [9]: 1.01
DNA-leakage (O.D. readings at 260 nm) [10]: 0.930
Effect on target cells after blocking Lipid II with vancomycin [11]: resulted in growth inhibition
Growth of pathogenic bacteria on red meat [12]: prevented the growth of pathogenic bacteria
Virulence factor AS (Aggregation substance) [13]: −
Virulence factor Ace (Adhesin to collagen from E. faecalis) [13]: −
Virulence factor Cyl (Cytolysin, β-hemolysin activity) [13]: +
Virulence factor Efa-Afm (E. faecium endocarditis antigen) [13]: −
Virulence factor Efa-Afs (E. faecalis endocarditis antigen) [13]: −
Virulence factor Esp (Enterococcus surface protein) [13]: −
Virulence factor Gel (Gelatinase production) [13]: −
Virulence factor Non-cyt (non-cytolysin beta hemolysin III) [13]: +
Virulence factor Van A (Vancomycin resistance) [13]: −
Virulence factor Van B (Vancomycin resistance) [13]: −
Virulence factor Van C1/2/3 [13]: −
